Laboratory results published in patent US9976134B2, “Thermolysin variants” (Danisco US Inc., priority 2007, dated 2018).

Assay: Stability assay in 25% TIDE 2X detergent with DTPA (residual Abz-AGLA-Nba protease activity)
Format: physicochemical
Settings: 60 min at 32°C; variant residual AGLA activity divided by wild-type residual activity
Protocol: (§1) The stability of thermolysin and variants thereof was measured after incubation under defined conditions in the presence of 25% TIDE® 2× detergent. The initial and residual activity was determined.
(§2) MTPs were obtained from Costar (type 9017) and from Greiner (black plate, type 655076). Test Method Unstressed Conditions:
(§3) First, 20 μl thermolysin containing culture supernatant was diluted with 180 μl MES assay buffer. Then, 20 μl diluted supernatant was diluted further with 180 μl MES assay buffer. Subsequently 10 μl of this dilution was transferred into 190 μl AGLA-substrate solution in a pre-warmed plate (Greiner 655076) at 25° C. Any air bubbles present were blown away and the plate was measured according to the AGLA protease assay protocol described below.
(§4) First, 20 μl of culture supernatant was diluted with 180 μl 27.5% TIDE®+detergent solution and placed in the iEMS shaker. The plate covered with a plate seal was incubated for a total of 60 minutes at 32° C. at 900 rpm. In addition, 20 μl of culture supernatant was diluted with 180 μl 27.5% TIDE®−solution and placed in the iEMS shaker. This plate covered with a plate seal was incubated for a total of 180 minutes at 50° C. at 900 rpm.
(§5) Subsequently after the respective incubations, 20 μl of either of these solutions were diluted with 180 μl MES assay buffer and 10 μl of this dilution were diluted with 190 μl AGLA-substrate solution in a pre-warmed plate (Greiner 655076) at 25° C.
(§6) Fluorescence measurements were taken at excitation of 350 nm and emission of 420 nm. The spectrofluorometer software calculated the reaction rates (=slope) of the increase in fluorescence for each well to a linearly regressed line of (milli-) RFU/min. The ratio of the residual and initial AGLA activity was used to express the 25% TIDE® 2× stability as follows: Percentage of residual activity=[slope of stressed]*100/[slope of unstressed]
(§7) For each sample (thermolysin and variants thereof) the performance index was calculated by dividing the residual activity of the variant by the residual activity of thermolysin. The performance index compared the stability of the variant and the standard thermolysin enzyme (e.g., wild type or parental enzyme), determined under the same conditions.
(§8) In these experiments, the liberation of Abz-AG by protease cleavage of Abz-AGLA-Nba was monitored by fluorescence spectrometry (Ex. 350/Em. 420). The rate of appearance of Abz-AG was a measure of proteolytic activity.
(§9) The Abz-AGLA-Nba assay solution was prepared by adding 1 ml of the Abz-AGLA-Nba stock to 19 ml MES substrate buffer and mixed well for at least 2 minutes. Subsequently the thermolysin or variants thereof containing culture supernatants were diluted with MES assay buffer to a concentration of 1-6 μg protein per ml.
(§10) The assay was performed by adding 10 μl of diluted protease solution to each well, followed by the addition of 190 μl Abz-AGLA-Nba assay solution that was pre-equilibrated for at least 15 minutes at 25° C. The solutions were vigorously mixed, and the liberation of Abz-AG by protease cleavage of Abz-AGLA-Nba was monitored by fluorescence spectrometry at 25° C. in kinetic mode with excitation set at 350 nm and emission set at 420 nm. The rate of appearance of Abz-AG was a measure of proteolytic activity in the samples. The protease activity was expressed as RFU (relative fluorescence units·min^−1).
(§11) As described in Example 1, the stability of thermolysin variants was measured by determining the AGLA activity before and after incubation in the presence of TIDE® 2× heavy duty liquid (HDL) detergent at an elevated temperature. The tables contain the relative stability values compared to wild-type thermolysin, which is the quotient of the variant residual activity divided by the wild-type residual activity. A value greater than one indicates higher stability in the presence of detergent. […]

Row | Molecule | PI (relative stability), 25% TIDE 2X with DTPA
1 | I156E: single-substitution thermolysin variant (SEQ ID NO:3 numbering) (protein, listed as Geobacillus caldoproteolyticus) ITGTSTVGVGRGVLGDQKNINTTYSTYYYLQDNTRGNGIFTYDAKYRTTLPGSLWADADNQFFASYDAPAVDAHYYAGVTYDYYKNVHNRLSYDGNNAAIRSSVHYSQGYNNAFWNGSQMVYGDGDGQTFIPLSGGIDVVAHELTHAVTDYTAGLEYQNESGAINEAISDIFGTLVEFYANKNPDWEIGEDVYTPGISGDSLRSMSDPAKYGDPDHYSKRYTGTQDNGGVHINSGIINKAAYLISQGGTHYGVSVVGIGRDKLGKIFYRALTQYLTPTSNFSQLRAAAVQSATDLYGSTSQEVASVKQAFDAVGVK | 1.58
2 | T049S: single-substitution thermolysin variant (SEQ ID NO:3 numbering) (protein, listed as Geobacillus caldoproteolyticus) ITGTSTVGVGRGVLGDQKNINTTYSTYYYLQDNTRGNGIFTYDAKYRTSLPGSLWADADNQFFASYDAPAVDAHYYAGVTYDYYKNVHNRLSYDGNNAAIRSSVHYSQGYNNAFWNGSQMVYGDGDGQTFIPLSGGIDVVAHELTHAVTDYTAGLIYQNESGAINEAISDIFGTLVEFYANKNPDWEIGEDVYTPGISGDSLRSMSDPAKYGDPDHYSKRYTGTQDNGGVHINSGIINKAAYLISQGGTHYGVSVVGIGRDKLGKIFYRALTQYLTPTSNFSQLRAAAVQSATDLYGSTSQEVASVKQAFDAVGVK | 1.08

Assay: Stability assay in 25% TIDE 2X detergent without DTPA (residual Abz-AGLA-Nba protease activity)
Format: physicochemical
Settings: 180 min at 50°C; variant residual AGLA activity divided by wild-type residual activity
Protocol: as §1, §2, §3, §4, §5, §6, §7, §8, §9, §10, §11

Row | Molecule | PI (relative stability), 25% TIDE 2X without DTPA
3 | I156E: single-substitution thermolysin variant (SEQ ID NO:3 numbering) (protein, listed as Geobacillus caldoproteolyticus) ITGTSTVGVGRGVLGDQKNINTTYSTYYYLQDNTRGNGIFTYDAKYRTTLPGSLWADADNQFFASYDAPAVDAHYYAGVTYDYYKNVHNRLSYDGNNAAIRSSVHYSQGYNNAFWNGSQMVYGDGDGQTFIPLSGGIDVVAHELTHAVTDYTAGLEYQNESGAINEAISDIFGTLVEFYANKNPDWEIGEDVYTPGISGDSLRSMSDPAKYGDPDHYSKRYTGTQDNGGVHINSGIINKAAYLISQGGTHYGVSVVGIGRDKLGKIFYRALTQYLTPTSNFSQLRAAAVQSATDLYGSTSQEVASVKQAFDAVGVK | 1.09
4 | Q061E: single-substitution thermolysin variant (SEQ ID NO:3 numbering) (protein, listed as Geobacillus caldoproteolyticus) ITGTSTVGVGRGVLGDQKNINTTYSTYYYLQDNTRGNGIFTYDAKYRTTLPGSLWADADNEFFASYDAPAVDAHYYAGVTYDYYKNVHNRLSYDGNNAAIRSSVHYSQGYNNAFWNGSQMVYGDGDGQTFIPLSGGIDVVAHELTHAVTDYTAGLIYQNESGAINEAISDIFGTLVEFYANKNPDWEIGEDVYTPGISGDSLRSMSDPAKYGDPDHYSKRYTGTQDNGGVHINSGIINKAAYLISQGGTHYGVSVVGIGRDKLGKIFYRALTQYLTPTSNFSQLRAAAVQSATDLYGSTSQEVASVKQAFDAVGVK | 1.05
5 | S065W: single-substitution thermolysin variant (SEQ ID NO:3 numbering) (protein, listed as Geobacillus caldoproteolyticus) ITGTSTVGVGRGVLGDQKNINTTYSTYYYLQDNTRGNGIFTYDAKYRTTLPGSLWADADNQFFAWYDAPAVDAHYYAGVTYDYYKNVHNRLSYDGNNAAIRSSVHYSQGYNNAFWNGSQMVYGDGDGQTFIPLSGGIDVVAHELTHAVTDYTAGLIYQNESGAINEAISDIFGTLVEFYANKNPDWEIGEDVYTPGISGDSLRSMSDPAKYGDPDHYSKRYTGTQDNGGVHINSGIINKAAYLISQGGTHYGVSVVGIGRDKLGKIFYRALTQYLTPTSNFSQLRAAAVQSATDLYGSTSQEVASVKQAFDAVGVK | 1.09
6 | S065D: single-substitution thermolysin variant (SEQ ID NO:3 numbering) (protein, listed as Geobacillus caldoproteolyticus) ITGTSTVGVGRGVLGDQKNINTTYSTYYYLQDNTRGNGIFTYDAKYRTTLPGSLWADADNQFFADYDAPAVDAHYYAGVTYDYYKNVHNRLSYDGNNAAIRSSVHYSQGYNNAFWNGSQMVYGDGDGQTFIPLSGGIDVVAHELTHAVTDYTAGLIYQNESGAINEAISDIFGTLVEFYANKNPDWEIGEDVYTPGISGDSLRSMSDPAKYGDPDHYSKRYTGTQDNGGVHINSGIINKAAYLISQGGTHYGVSVVGIGRDKLGKIFYRALTQYLTPTSNFSQLRAAAVQSATDLYGSTSQEVASVKQAFDAVGVK | 1.20
7 | T049S: single-substitution thermolysin variant (SEQ ID NO:3 numbering) (protein, listed as Geobacillus caldoproteolyticus) ITGTSTVGVGRGVLGDQKNINTTYSTYYYLQDNTRGNGIFTYDAKYRTSLPGSLWADADNQFFASYDAPAVDAHYYAGVTYDYYKNVHNRLSYDGNNAAIRSSVHYSQGYNNAFWNGSQMVYGDGDGQTFIPLSGGIDVVAHELTHAVTDYTAGLIYQNESGAINEAISDIFGTLVEFYANKNPDWEIGEDVYTPGISGDSLRSMSDPAKYGDPDHYSKRYTGTQDNGGVHINSGIINKAAYLISQGGTHYGVSVVGIGRDKLGKIFYRALTQYLTPTSNFSQLRAAAVQSATDLYGSTSQEVASVKQAFDAVGVK | 1.26
8 | A058E: single-substitution thermolysin variant (SEQ ID NO:3 numbering) (protein, listed as Geobacillus caldoproteolyticus) ITGTSTVGVGRGVLGDQKNINTTYSTYYYLQDNTRGNGIFTYDAKYRTTLPGSLWADEDNQFFASYDAPAVDAHYYAGVTYDYYKNVHNRLSYDGNNAAIRSSVHYSQGYNNAFWNGSQMVYGDGDGQTFIPLSGGIDVVAHELTHAVTDYTAGLIYQNESGAINEAISDIFGTLVEFYANKNPDWEIGEDVYTPGISGDSLRSMSDPAKYGDPDHYSKRYTGTQDNGGVHINSGIINKAAYLISQGGTHYGVSVVGIGRDKLGKIFYRALTQYLTPTSNFSQLRAAAVQSATDLYGSTSQEVASVKQAFDAVGVK | 1.24
9 | A056E: single-substitution thermolysin variant (SEQ ID NO:3 numbering) (protein, listed as Geobacillus caldoproteolyticus) ITGTSTVGVGRGVLGDQKNINTTYSTYYYLQDNTRGNGIFTYDAKYRTTLPGSLWEDADNQFFASYDAPAVDAHYYAGVTYDYYKNVHNRLSYDGNNAAIRSSVHYSQGYNNAFWNGSQMVYGDGDGQTFIPLSGGIDVVAHELTHAVTDYTAGLIYQNESGAINEAISDIFGTLVEFYANKNPDWEIGEDVYTPGISGDSLRSMSDPAKYGDPDHYSKRYTGTQDNGGVHINSGIINKAAYLISQGGTHYGVSVVGIGRDKLGKIFYRALTQYLTPTSNFSQLRAAAVQSATDLYGSTSQEVASVKQAFDAVGVK | 1.07
10 | A058C: single-substitution thermolysin variant (SEQ ID NO:3 numbering) (protein, listed as Geobacillus caldoproteolyticus) ITGTSTVGVGRGVLGDQKNINTTYSTYYYLQDNTRGNGIFTYDAKYRTTLPGSLWADCDNQFFASYDAPAVDAHYYAGVTYDYYKNVHNRLSYDGNNAAIRSSVHYSQGYNNAFWNGSQMVYGDGDGQTFIPLSGGIDVVAHELTHAVTDYTAGLIYQNESGAINEAISDIFGTLVEFYANKNPDWEIGEDVYTPGISGDSLRSMSDPAKYGDPDHYSKRYTGTQDNGGVHINSGIINKAAYLISQGGTHYGVSVVGIGRDKLGKIFYRALTQYLTPTSNFSQLRAAAVQSATDLYGSTSQEVASVKQAFDAVGVK | 1.01
11 | Q061M: single-substitution thermolysin variant (SEQ ID NO:3 numbering) (protein, listed as Geobacillus caldoproteolyticus) ITGTSTVGVGRGVLGDQKNINTTYSTYYYLQDNTRGNGIFTYDAKYRTTLPGSLWADADNMFFASYDAPAVDAHYYAGVTYDYYKNVHNRLSYDGNNAAIRSSVHYSQGYNNAFWNGSQMVYGDGDGQTFIPLSGGIDVVAHELTHAVTDYTAGLIYQNESGAINEAISDIFGTLVEFYANKNPDWEIGEDVYTPGISGDSLRSMSDPAKYGDPDHYSKRYTGTQDNGGVHINSGIINKAAYLISQGGTHYGVSVVGIGRDKLGKIFYRALTQYLTPTSNFSQLRAAAVQSATDLYGSTSQEVASVKQAFDAVGVK | 1.01
12 | S065P: single-substitution thermolysin variant (SEQ ID NO:3 numbering) (protein, listed as Geobacillus caldoproteolyticus) ITGTSTVGVGRGVLGDQKNINTTYSTYYYLQDNTRGNGIFTYDAKYRTTLPGSLWADADNQFFAPYDAPAVDAHYYAGVTYDYYKNVHNRLSYDGNNAAIRSSVHYSQGYNNAFWNGSQMVYGDGDGQTFIPLSGGIDVVAHELTHAVTDYTAGLIYQNESGAINEAISDIFGTLVEFYANKNPDWEIGEDVYTPGISGDSLRSMSDPAKYGDPDHYSKRYTGTQDNGGVHINSGIINKAAYLISQGGTHYGVSVVGIGRDKLGKIFYRALTQYLTPTSNFSQLRAAAVQSATDLYGSTSQEVASVKQAFDAVGVK | 1.18
